Experimental data published in patent US20260117244A1, “INHIBITORY RNA FOR THE CONTROL OF PHYTOPATHOGENS” (priority 2021, published 2026).

Test system: E. necator
Assay: SIGS, E. necator spore production on V. vinifera (whole plant and leaf disc assays)
Format: in vivo, Erysiphe necator
Settings: for visual powdery mildew coverage and density: V. vinifera leaves, 9 days post infection, vs buffer alone
Source text: Spore suspension concentrations were normalized to the input tissue weight (g) before being normalized to the control.
Spore suspension concentrations were normalized to the input tissue weight (g) before being normalized to the control. CYP51 is included as a positive control gene required for growth. Error bars±SEM. *p<0.05 by Student's T-Test (unpaired, 2-tailed) compared to control.
With SIGS methods optimized and gene targets identified, we sought to translate these methods and targets to grape powdery mildew (FIG. 2). New long dsRNAs were designed for each target tested as there is significant sequence divergence between G. orontii MGH1 and E. necator c. First, procedures were optimized for the grapevine system by silencing CYP51. Spore production was reduced by 62% and 45% in grapevine whole plant and leaf disc assays, respectively when treated with long dsRNA against the same region of CYP51 as dsRNA-1 against G. orontii MGH1 CYP51 (FIG. 2; FIG. 7, panel a). […] We tested SIGS against the effective targets including AATF in the grapevine system, as we were interested in ascertaining whether they would show a statistically significant difference in grape powdery mildew spore production. […] The average reduction of powdery mildew spore production for SIGS against CYP51 and AATF was greater in E. necator compared to G. orontii (FIG. 4 and FIG. 7). One notable difference is G. orontii has 2 copies each of CYP51 and AATF while E. necator has 1 copy of each of these genes. SIGS against the other effective targets also were effective in reducing powdery mildew of grapevine (FIG. 7).
As the full G. orontii MGH1 OEC60/OEC61 is conserved in other powdery mildews (Table 6) and has the potential to interact with both TCP13 and TCP14, we tested whether findings in the G. orontii MGH1-Arabidopsis pathosystem can translate to an agriculturally important pathosystem, powdery mildew of grapevine. To do so, we identified an OEC60/OEC61 homolog in E. necator c (Jones et al., 2014) and designed a long dsRNA to target this gene in the same region effective for G. orontii. Targeting of OEC60/OEC61 in Erysiphe necator by SIGS reduces grape powdery mildew production on V. vinifera leaves to 71% of control treated plants (FIG. 12), similar to the reduction seen with the Arabidopsis powdery mildew (FIG. 10, panel d).

B1: EnCYP51: long dsRNA against E. necator CYP51 (target SEQ ID NO:182) (nucleic acid)
chain: TGTCAACGCCGAAGAGATTTACACTAATTTAACAACTCCGGTCTTTGGAAGAGATGTTGTATTTGATTGTCCAAATTCCAAACTCATGGAACAAAAAAAGTTTATGAAAACGGCTCTTACCATTGAAGCGTTCCATTCCTATGTAACAATAATACAAAATGAAGTAGAGGCATATATAAACAATTGCGTTAGCTTTCAGGGTGAGAGTGGCACAGTAAACATCTCAAAAGTTATGGCGGAAATCACTA
modifications: misc_feature 1..248: note = Inhibitory double stranded RNA; listed as RNA
visual powdery mildew coverage and density: Less powdery mildew density | visual powdery mildew coverage and density (listed as E. necator CYP51 dsRNA): less powdery mildew coverage and density | reduction in spore production (grapevine leaf disc assay, long dsRNA): 45% | reduction in spore production (grapevine whole plant assay, long dsRNA): 62%

B2: E. necator OEC60/OEC61 dsRNA: long dsRNA against E. necator homolog of OEC60/OEC61 (target SEQ ID NO:199) (nucleic acid)
chain: CTGCTACTAGCTTTCATGGTATGAAACTCATTATTGGTGTTTTTATTGGTGAAACTGGTTGCTCTGGCGCTAAAGAGCAGGTGAACCACATCGTTAAATGGGGTAAATGGGATTTGGTAGAACTCATTGTGATCGGGAATGAGGCTCTGTTTAGTGGTCATGCGTCACCCGAAGAGTTAGCCGAATTTATTACCTCGACTAAAATCACCCTCAGATCAGC
modifications: misc_feature 1..220: note = Inhibitory double stranded RNA; listed as RNA
effect on grapevine powdery mildew growth and reproduction / spore production (E. necator on V. vinifera, SIGS): reduces spore production | grape powdery mildew spore production relative to control treated plants (V. vinifera leaf discs (FIG. 12), long dsRNA): 71 % of control

B3: E. necator AATF dsRNA: long dsRNA against E. necator AATF (target SEQ ID NO:197) (nucleic acid)
chain: TGATAGCGATCATGATAGATGCGACTCAAATTTTAGTAATAGGAATGACAAAGAGATTATTAAACGGTCTGAAATTCAAAGATTTATGGAAGAAGATCAAAAAGCAATATTATCAACTTTATCTCAAGCAGCAAAGGTAGATGCAGAAAAGGGAAGGGCAATTAAGTCACAACAAATGAGATTCGATTCTCTTCTAAATACGCGAATGGAGCTGCAGAAAGCTCTGATAGCAGTTAATTCTCTTACTACCTTTCAAGATGATAATTCTATTTTCTCCAAGGATAAGCCATACGAAGCAGC
modifications: misc_feature 1..300: note = Inhibitory double stranded RNA; listed as RNA
average reduction in spore production (long dsRNA, assay format not stated (FIG. 7)): 53%
